Patent US20080009438A9, “Screening methods for compounds useful in the regulation of body weight” (Millennium Pharmaceuticals, Inc., priority 1996, published 2008)

B1: agouti protein: gene product expressed in mice, involved in coat color and obesity when ectopically expressed; antagonizes melanocortin receptors (protein)
chain: HLALEETLGDDRSLRSNSSMNSLDFSSVSIVALNKKSKKISRKEAEKRKRSSKKKASMKKVARPPPPSPCVATRDSCKPPAPACCDPCASCQCRFFGSACTCRVLNPNC

What was measured:
hMC1-r [1] = target: T1, hMC1-r (Homo sapiens, UniProt Q01726); assay: Scatchard Analysis on MC1-r transfected COS7 cells with AP-Ag; type: binding; settings: culture supernatant containing up to 30 nM AP-Ag, estimated
T1 construct: expressed in transfected cells; host or cells: COS-7 cells, transient (DEAE-Dextran)
Procedure: (§1) COS-7 cells were transfected with hMC1-r or hMC4-r by the DEAE-Dextran method. A plasmid containing the Adenovirus VA1 and VA2 RNA genes was used to co-transfect the COS cells to enhance transient protein expression by increasing translational initiation. The MC4-r and the VA½ cDNA plasmids were used at a ratio of 10 to 1. Control plates received the VA½ plasmid alone. 48 hours post-transfection, the cells were rinsed and culture supernatant containing 15 nm of AP-Ag was added. AP-Ag is a truncated agouti protein, containing the cysteine-rich domain tagged with the alkaline phosphatase at its N-terminal. Binding of AP-Ag to transfected cells proceeded at room temperature for 90 minutes with gentle rocking. The cells were then washed 7 times before fixing and color development using NBT/BCIP substrate.
To assess the affinity of the agouti protein for the MC1-R receptor, a Scatchard Analysis was performed on MC1-r transfected COS7 cells using culture supernatant containing up to 30 nM AP-Ag. The Kd has been estimated at 20-30 nM range.

hMC1-r [2] = target: T1, hMC1-r; assay: Direct binding of AP-Ag to hMC1-r transfected COS-7 cells (AP staining); settings: 15 nm AP-Ag, room temperature, 90 minutes; transfection efficiency typically 12-16%
Procedure: as §1
(§2) N-terminal truncated agouti protein, containing only the cysteine-rich C-terminal domain, retains the antagonizing activity of the full-length agouti. […]
(§3) The transfection efficiency, as monitored by β-galactosidase reporter plasmid, typically was 12-16%. 10-13% of the MC1-r transfected and 3-4% of the MC4-r transfected COS7 cells bound the agouti protein as determined by AP staining. […]

hMC4-r = target: T2, hMC4-r (Homo sapiens, UniProt P32245); assay: Direct binding of AP-Ag to hMC4-r transfected COS-7 cells (AP staining); settings: 15 nm AP-Ag, room temperature, 90 minutes; transfection efficiency typically 12-16%
T2 construct: expressed in transfected cells; host or cells: COS-7 cells, transient (DEAE-Dextran), co-transfected with Adenovirus VA1/VA2 RNA plasmid
Procedure: as §1, §2, §3

[3] = target: T3, Human melanocortin receptor 4 (hMC4-r) (Homo sapiens, UniProt P32245); assay: Intracellular cAMP level in 293/MC4-R stable clones with agouti protein; type: cell-based; settings: 5 nM agouti protein; 293/MC4-R line relative to the parental 293 cell line
T3 construct: expressed in transfected cells
Procedure: Human melanocortin receptor 4 (hMC4-r) cDNA, under the control of the CMV promoter, was transfected into the 293 cell line, and stable clones were selected (293/MC4-R). The stable clones were tested for reduction in intracellular cAMP levels in the presence of 5 nM agouti protein.
When 5 nM agouti protein was added to the 293/MC4-R line, an 18% reduction of intracellular cAMP level, relative to the parental 293 cell line, was observed.

T1 sequence (Q01726 whole entry): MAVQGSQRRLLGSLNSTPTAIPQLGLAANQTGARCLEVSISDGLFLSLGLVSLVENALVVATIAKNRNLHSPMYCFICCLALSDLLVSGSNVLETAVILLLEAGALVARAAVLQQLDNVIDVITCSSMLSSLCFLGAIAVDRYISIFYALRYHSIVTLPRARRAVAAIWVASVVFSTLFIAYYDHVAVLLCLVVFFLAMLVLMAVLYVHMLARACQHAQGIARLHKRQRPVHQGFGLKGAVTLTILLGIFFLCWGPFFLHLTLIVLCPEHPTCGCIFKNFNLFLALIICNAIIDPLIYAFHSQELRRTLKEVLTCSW
T2 sequence (P32245 whole entry): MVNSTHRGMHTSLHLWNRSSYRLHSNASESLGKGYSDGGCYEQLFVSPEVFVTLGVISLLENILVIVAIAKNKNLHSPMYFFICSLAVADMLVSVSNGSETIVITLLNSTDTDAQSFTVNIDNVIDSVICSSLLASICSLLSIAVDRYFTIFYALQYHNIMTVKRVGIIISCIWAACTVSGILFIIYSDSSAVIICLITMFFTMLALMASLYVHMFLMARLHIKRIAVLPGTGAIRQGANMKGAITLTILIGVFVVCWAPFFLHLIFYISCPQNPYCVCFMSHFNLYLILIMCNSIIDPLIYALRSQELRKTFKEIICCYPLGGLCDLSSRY
T3 sequence (P32245 whole entry): as above

Molecule	Kd (hMC1-r [1]) [nM]	MC1-r transfected COS7 cells that bound the agouti protein as determined by AP staining (hMC1-r [2])	MC4-r transfected COS7 cells that bound the agouti protein as determined by AP staining (hMC4-r)	reduction of intracellular cAMP level [3] [%]
AP-Ag: truncated agouti protein, containing the cysteine-rich domain tagged with the alkaline phosphatase at its N-terminal	20 to 30			
B1		10-13%	3-4%	18
